Measured values from doi:10.1101/2023.02.23.529646 (bioRxiv, 2023).
Positions count from the first letter of the chain named.

Assays:
ACAD9WT (res. 38-621) = target: T1, ACAD9WT (res. 38-621) (human, UniProt Q9H845 38-621); test: mass photometry
T1 sequence: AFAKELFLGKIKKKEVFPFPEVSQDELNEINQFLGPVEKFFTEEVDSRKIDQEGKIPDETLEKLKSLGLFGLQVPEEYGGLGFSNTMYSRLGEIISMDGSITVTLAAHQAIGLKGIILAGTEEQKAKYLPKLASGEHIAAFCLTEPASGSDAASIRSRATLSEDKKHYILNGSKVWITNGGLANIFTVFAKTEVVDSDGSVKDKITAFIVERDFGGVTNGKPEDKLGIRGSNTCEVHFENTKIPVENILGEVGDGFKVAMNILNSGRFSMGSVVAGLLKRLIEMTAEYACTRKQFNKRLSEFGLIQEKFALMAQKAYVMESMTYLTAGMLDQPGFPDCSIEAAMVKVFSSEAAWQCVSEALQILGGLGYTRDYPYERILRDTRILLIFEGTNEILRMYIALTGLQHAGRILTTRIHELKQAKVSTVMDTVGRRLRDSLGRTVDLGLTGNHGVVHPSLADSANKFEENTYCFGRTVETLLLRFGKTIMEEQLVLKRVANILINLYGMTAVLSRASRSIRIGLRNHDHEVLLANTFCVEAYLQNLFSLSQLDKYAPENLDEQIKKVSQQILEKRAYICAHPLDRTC

VLCAD_(ACAD9) = target: T2, VLCAD_(ACAD9) (human, UniProt P49748 72-655, 437MGGMGFM443 to 437LGGLGYT443); test: mass photometry
T2 sequence: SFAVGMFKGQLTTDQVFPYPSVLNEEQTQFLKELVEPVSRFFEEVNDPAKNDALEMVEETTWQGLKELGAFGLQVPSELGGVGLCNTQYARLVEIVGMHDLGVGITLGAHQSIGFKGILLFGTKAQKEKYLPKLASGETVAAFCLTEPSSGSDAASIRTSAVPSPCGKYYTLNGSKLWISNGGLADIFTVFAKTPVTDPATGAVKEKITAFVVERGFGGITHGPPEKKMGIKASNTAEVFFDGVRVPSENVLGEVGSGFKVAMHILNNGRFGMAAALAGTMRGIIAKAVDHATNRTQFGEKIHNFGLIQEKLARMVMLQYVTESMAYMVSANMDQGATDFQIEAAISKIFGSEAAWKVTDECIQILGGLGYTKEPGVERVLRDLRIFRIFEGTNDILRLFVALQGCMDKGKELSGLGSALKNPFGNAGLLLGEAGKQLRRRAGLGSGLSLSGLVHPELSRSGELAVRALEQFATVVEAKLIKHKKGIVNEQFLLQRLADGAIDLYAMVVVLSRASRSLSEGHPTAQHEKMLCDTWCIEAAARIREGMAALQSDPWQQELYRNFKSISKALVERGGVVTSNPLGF

ACAD9_(SR194TS) = target: T3, ACAD9_(SR194TS) (human, UniProt Q9H845 38-621, SR194TS); test: dynamic light scattering
T3 sequence: T1 sequence with S157T, R158S

ACAD9_(A184S) = target: T4, ACAD9_(A184S) (human, UniProt Q9H845 38-621, A184S); test: dynamic light scattering
T4 sequence: T1 sequence with A147S

B1: ECSIT_(CTER) (residues 221-431) (domain or fragment)
chain: QDPVELAMFGLRHMEPDLSARVTIYQVPLPKDSTGAADPPQPHIVGIQSPDQQAALARHNPARPVFVEGPFSLWLRNKCVYYHILRADLLPPEEREVEETPEEWNLYYPMQLDLEYVRSGWDNYEFDINEVEEGPVFAMCMAGAHDQATMAKWIQGLQETNPTLAQIPVVFRLAGSTRELQTSSAGLEEPPLPEDHQEEDDNLQRQQQGQS
With B1 the “stoichiometry N” value (ACAD9WT (res. 38-621)) was 2 ECSIT_(CTER) monomers per ACAD9 dimer, the binding result (VLCAD_(ACAD9)) was “binds” and the binding result (ACAD9_(SR194TS)) was “binds”. B1: binds (ACAD9_(A184S)).
